Reference: patent US10561706B2, “Isolated polypeptide and compositions comprising same” (B. G. NEGEV TECHNOLOGIES AND APPLICATIONS LTD., AT …, priority 2015, dated 2020)

Columns and labels:
SOD1^G93A [1] = biological target: T1, SOD1^G93A (Homo sapiens, UniProt P00441, G94A); assay: ThT aggregation assay of SOD1^G93A with SOD1-derived peptides; type: biochemical; conditions: for ThT response / amyloid-like aggregation of SOD1^G93A on co-incubation with peptide: SOD1^G93A 50 μM, up to 64 h
T1 construct: 6His (N); made in house; host or cells: E. coli BL21
Experimental: Prior to the aggregation assay, all mixtures containing protein and/or peptide were filtered through a 0.22 μm Millex-GV (PVDF) syringe filter, 4 mm (Millipore, USA). SOD1^G93A (50 μM) or peptide (600 μM) were incubated in 200 μl of 20 mM […] buffer, pH 7.0, 0.1 M NaCl, 5 mM EDTA, 1 mM TCEP, and 1% DMF in the presence of 50 μM Thioflavin T (Sigma Aldrich, Israel) in a black 96-well plate at 37° C. with continuous shaking (set to fast) using a SpectraMax Paradigm (Molecular Devices) ELISA reader. The fluorescence (Exc. 440 nm; Em. 485 nm) was measured at 5 min intervals.
(§1) The effect of the binding of SOD1-derived peptides to misfolded SOD1 on kinetics of SOD1 aggregation was tested. The time course of SOD1^G93A aggregation was followed by monitoring the fluorescence of a thioflavin T (ThT) probe.

SOD1^G93A [2] = biological target: T1, SOD1^G93A; assay: TEM analysis of SOD1^G93A aggregate morphology; type: biochemical; conditions: for morphology of SOD1^G93A aggregates by TEM versus SOD1^G93A alone: co-incubation with peptide, end of aggregation assay (FIG. 4B); for morphology of SOD1^G93A aggregates by TEM: 64 h at 37° C.
Experimental: Samples for TEM imaging were prepared as follows: at the end of the aggregation assay, 2.5 μl samples (diluted 5-fold) were deposited on a carbon-coated copper 300 mesh. After 1 min, the excess liquid was carefully blotted by a filter paper. Followed 1 min drying at the ambient temperature, 5 μl of 2% uranyl acetate was added. After 1 min, the excess of the salt solution was carefully removed with a filter paper. The imaging was performed using a Tecnai G2 12 BioTWIN (FEI) transmission electron microscope with an acceleration voltage of 120 kV. Depending on the aggregate size, different magnifications were used. The visible features were sensitive to the electron beam exposure, indicating their organic origin.
as §1

SOD1^WT [3] = biological target: T2, SOD1^WT (Homo sapiens, UniProt P00441); assay: Peptide binding to fluorescently labeled SOD1^WT by microscale thermophoresis (MST); conditions: SOD1^WT 200 nM, 1.5 h at r.t., peptide 0-100 μM
T2 construct: 6His (N); made in house; host or cells: E. coli BL21
From the text: (§2) Peptides were synthesized by GL Biochem Ltd. (Shanghai, China). Peptide identity and purity (>90%) was confirmed by MS and HPLC analyses. For microscale thermophoresis (MST) analysis, the proteins (SOD1^WT and SOD1^G93A) were labeled with BLUE fluorescent dye NT-495-NHS (lysine chemistry) using a Monolith NT protein labeling kit Blue-NETS (Nano Temper Technologies, Munchen, Germany) at a protein (monomer):dye ratio of 1:3 as recommended by the manufacturer.
(§3) The assessment of peptide binding to the proteins was carried out using Monolith NT.115 (NanoTemper Technologies, Munchen, Germany). […] The binding data were analyzed by a non-linear regression using a logistic (three parameter) function implemented in Prism6 (GraphPad) program.
(§4) The binding of synthetic peptides to fluorescently labeled SOD1^WT or SOD1^G93A was assessed using a microscale thermophoresis technique (MST). Two overlapping peptides, designated SE-11 (SEQ ID NO: 6) (SOD1 aa. 90-109, […]) and SE-12 (SEQ ID NO: 7) (SOD1 aa. 106-125, […]), inflicted a specific, dose-dependent increase in the fluorescence of the target proteins (FIGS. 3A-D).

SOD1^G93A [4] = biological target: T1, SOD1^G93A; assay: Peptide binding to fluorescently labeled SOD1^G93A by microscale thermophoresis (MST); conditions: SOD1^G93A 300 nM, 1.5 h at r.t., peptide 0-100 μM
From the text: as §2, §3, §4

SOD1^WT [5] = biological target: T2, SOD1^WT; assay: Immunoprecipitation (B8H10 mAb) analysis of SOD1^WT misfolding; type: biochemical; conditions: peptide 600 μM, 4 or 37° C.; effect more prominent at 4° C.
Experimental: Purified recombinant SOD1^G93A or SOD1^WT proteins […] were incubated for 4 h in 50 mM Tris-HCl buffer, pH 7.4, 150 mM NaCl, 1 mM EDTA, in the presence or absence of peptide SE-12 (SEQ ID NO: 7) (600 μM) at 4 or 37° C. After incubation, 10 μg of SOD1 proteins were transferred into immunoprecipitation (IP) buffer (50 mM Tris-HCl, pH 7.4, 150 mM NaCl, 1 mM EDTA, and 0.5% Nonidet P-40 plus protease inhibitors) and incubated at 4° C. overnight with B8H10 monoclonal antibody (MediMabs) crosslinked to protein G beads (Dynabeads, Invitogen) using dimethyl pimelimidate (Pierce) according to the manufacturer's instructions. The beads were magnetically isolated and washed three times with IP buffer. Samples were eluted by boiling in 2× sample buffer. Both bound and unbound IP fractions were then separated by SDS-PAGE, transferred to a nitrocellulose membrane and probed with goat anti-SOD1 antibody (C-17; Santa Cruz Biotechnology).
To test the function of the exposed ^106LSGDHC^111 epitope on misfolding of other SOD1 molecules, the effect of the SE-12 (SEQ ID NO: 7) peptide on SOD1 misfolding was tested using immunoprecipitation with a mAb (B8H10) that specifically recognizes misfolded SOD1. […] The effect of the peptide was more prominent at 4° C., when the intrinsic rate of SOD1^WT misfolding is low, than at 37° C. […]

[6] = 1:12 SOD1^G93A:peptide molar ratio

T2 sequence (P00441 whole entry): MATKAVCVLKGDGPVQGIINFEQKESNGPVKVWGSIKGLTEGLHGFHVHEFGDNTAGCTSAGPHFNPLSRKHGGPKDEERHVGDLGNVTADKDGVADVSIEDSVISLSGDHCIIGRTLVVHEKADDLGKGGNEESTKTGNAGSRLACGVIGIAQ
T1 sequence (P00441 2-154 G94A): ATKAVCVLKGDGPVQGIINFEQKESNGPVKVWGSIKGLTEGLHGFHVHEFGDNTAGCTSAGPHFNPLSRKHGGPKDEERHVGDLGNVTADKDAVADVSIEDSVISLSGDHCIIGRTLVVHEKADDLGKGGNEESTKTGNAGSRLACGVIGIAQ

In the case of “IIGRTLVVHEKADD (listed as Homo sapiens) [SE-19, SOD1-derived peptide]”, the “ThT response / amyloid-like aggregation of SOD1^G93A on co-incubation with peptide” value (“ThT response / amyloid-like aggregation” below) (SOD1^G93A [1]; 37° C., continuous shaking) is reported as “formation of amyloid-like (ThT-responsive) aggregates” and the “morphology of SOD1^G93A aggregates by TEM versus SOD1^G93A alone” value (“morphology … by TEM versus SOD1^G93A alone” for short) (SOD1^G93A [2]) is reported as “morphology was different”.
In the case of “LSGDHCIIGRTLVVHEKADD (listed as Homo sapiens) [SE-12, 20-mer peptide, SOD1 aa; 106-125]”, the “change in fluorescence of labeled SOD1^WT (peptide binding)” value (SOD1^WT [3]) is reported as “increase in fluorescence was observed”, the “change in fluorescence of labeled SOD1^G93A (peptide binding)” value (SOD1^G93A [4]) is reported as “increase in fluorescence was observed” and the “amount of misfolded SOD1^WT immunoprecipitated by B8H10” value (SOD1^WT [5]) is reported as “significantly increased the amount of accumulated misfolded species”. The “ThT response / amyloid-like aggregation” value (SOD1^G93A [1]; 37° C., continuous shaking) was “inhibited the SOD1^G93A-triggered ThT response and fibril formation in a dose-dependent manner” and the “morphology of SOD1^G93A aggregates by TEM” value (SOD1^G93A [2]; [6]) was “amorphous aggregates were detected by TEM”.
In the case of “DKDGVADVSIEDSVISLSGD (listed as Homo sapiens) [SE-11, 20-mer peptide, SOD1 aa; 90-109]”, the “change in fluorescence of labeled SOD1^WT (peptide binding)” value (SOD1^WT [3]) is reported as “only with SOD1^G93A”, the “change in fluorescence of labeled SOD1^G93A (peptide binding)” value (SOD1^G93A [4]) is reported as “effect was obtained” and the “ThT response of SOD1^G93A” value (SOD1^G93A [1]; low peptide:SOD1 molar ratios, 37° C., continuous shaking) is reported as “inhibited the ThT response of SOD1^G93A”. The “ThT response of SOD1^G93A” value (SOD1^G93A [1]; peptide:SOD1 molar ratios higher than 3, compared to SOD1^G93A alone) was “significantly enhanced ThT response”, the “morphology of SOD1^G93A aggregates by TEM” value (SOD1^G93A [2]; [6]) was “large spherulites (0.5-1.0 μm diameter)” and the “morphology of SOD1^G93A aggregates by TEM” value (SOD1^G93A [2]; low peptide:SOD1 molar ratio (1:0.2 SOD1^G93A:peptide)) was “suppressed the formation of characteristic fibril-like aggregates”.
In the case of “DKDGVADVSIEDSV (listed as Homo sapiens) [SE-20, SOD1-derived peptide]”, the “ThT response / amyloid-like aggregation” value (SOD1^G93A [1]; 37° C., continuous shaking) is reported as “formation of amyloid-like (ThT-responsive) aggregates” and the “morphology … by TEM versus SOD1^G93A alone” value (SOD1^G93A [2]) is reported as “morphology was different”.
With “EDSVISLSGDHCIIGRT (listed as Homo sapiens) [SE-21, SOD1-derived peptide]” the “ThT response / amyloid-like aggregation” value (SOD1^G93A [1]; 37° C., continuous shaking) was “did not prevent aggregation” and the “morphology … by TEM versus SOD1^G93A alone” value (SOD1^G93A [2]) was “different morphology (size)”.
